Results: article PMC4017264 (Molecular Cell, 2014)

B1: HOIP extended PUB domain (aa 1–184) [not stated] / FITC-Ahx-labeled OTULIN PIM peptide (aa 49–67) [modified: FITC-Ahx label; FITC-Ahx label] [not stated] (parent complex)
chain 1: MPGEEEERAFLVAREELASALRRDSGQAFSLEQLRPLLASSLPLAARYLQLDAARLVRCNAHGEPRNYLNTLSTALNILEKYGRNLLSPQRPRYWRGVKFNNPVFRSTVDAVQGGRDVLRLYGYTEEQPDGLSFPEGQEEPDEHQVATVTLEVLLLRTELSLLLQNTHPRQQALEQLLEDKVED
chain 2: AEHEEDMYRAADEIEKEKE

Variants of: B1
Assay: fluorescence polarisation; triplicate

Kd	Variant
2.03 µM	chain 1 MPGEEEERAFLVAREELASALRRDSGQAFSLEQLRPLLASSLPLAARYLQLDAARLVRCNAHGEPRNYLNTLSTALNILEKYGRNLLSPQRPRYWRGVKFNNPAFRSTVDAVQGGRDVLRLYGYTEEQPDGLSFPEGQEEPDEHQVATVTLEVLLLRTELSLLLQNTHPRQQALEQLLEDKVED [chain 1 V104A]

Variants of: B1
Assay: fluorescence polarisation; triplicate
Remark: another data set of the same source

Kd	Variant
11.2 µM	chain 2 AEHEEAMYRAADEIEKEKE [chain 2 D6A]
21.3 µM	chain 2 AEHEEDMWRAADEIEKEKE [chain 2 Y8W]
64.5 µM	chain 2 AEHEEDMFRAADEIEKEKE [chain 2 Y8F]
